# Measured values reported in doi:10.1101/2025.10.04.680452 (bioRxiv, 2025).
# Where “and” joins values, the source holds several entries; their conditions need not be identical. Equal values may be shown once.
# B1: human mitochondrial group I chaperonin mHsp60, wild type (natural protein)
# chain: GSAKDVKFGADARALMLQGVDLLADAVAVTMGPKGRTVIIEQSWGSPKVTKDGVTVAKSIDLKDKYKNIGAKLVQDVANNTNEEAGDGTTTATVLARSIAKEGFEKISKGANPVEIRRGVMLAVDAVIAELKKQSKPVTTPEEIAQVATISANGDKEIGNIISDAMKKVGRKGVITVKDGKTLNDELEIIEGMKFDRGYISPYFINTSKGQKCEFQDAYVLLSEKKISSIQSIVPALEIANAHRKPLVIIAEDVDGEALSTLVLNRLKVGLQVVAVKAPGFGDNRKNQLKDMAIATGGAVFGEEGLTLNLEDVQPHDLGKVGEVIVTKDDAMLLKGKGDKAQIEKRIQEIIEQLDVTTSEYEKEKLNERLAKLSDGVAVLKVGGTSDVEVNEKKDRVTDALNATRAAVEEGIVLGGGCALLRCIPALDSLTPANEDQKIGIEIIKRTLKIPAMTIAKNAGVEGSLIVEKIMQSSSEVGYDAMAGDFVNMVEKGIIDPTKVVRTALLDAAGVASLLTTAEVVVTEIPKEEKDPGMGAMGGMGGGMGGGMF
# Target: the molecule itself
# Test: cryo-EM structure
protein,measurement,value
B1,stoichiometry N,7 and 14
